Numbering of substitutions follows the chain as printed.
T1: hiR2-FL-T519A-T7 (human, UniProt Q6PJF5 1-856)
T1 sequence: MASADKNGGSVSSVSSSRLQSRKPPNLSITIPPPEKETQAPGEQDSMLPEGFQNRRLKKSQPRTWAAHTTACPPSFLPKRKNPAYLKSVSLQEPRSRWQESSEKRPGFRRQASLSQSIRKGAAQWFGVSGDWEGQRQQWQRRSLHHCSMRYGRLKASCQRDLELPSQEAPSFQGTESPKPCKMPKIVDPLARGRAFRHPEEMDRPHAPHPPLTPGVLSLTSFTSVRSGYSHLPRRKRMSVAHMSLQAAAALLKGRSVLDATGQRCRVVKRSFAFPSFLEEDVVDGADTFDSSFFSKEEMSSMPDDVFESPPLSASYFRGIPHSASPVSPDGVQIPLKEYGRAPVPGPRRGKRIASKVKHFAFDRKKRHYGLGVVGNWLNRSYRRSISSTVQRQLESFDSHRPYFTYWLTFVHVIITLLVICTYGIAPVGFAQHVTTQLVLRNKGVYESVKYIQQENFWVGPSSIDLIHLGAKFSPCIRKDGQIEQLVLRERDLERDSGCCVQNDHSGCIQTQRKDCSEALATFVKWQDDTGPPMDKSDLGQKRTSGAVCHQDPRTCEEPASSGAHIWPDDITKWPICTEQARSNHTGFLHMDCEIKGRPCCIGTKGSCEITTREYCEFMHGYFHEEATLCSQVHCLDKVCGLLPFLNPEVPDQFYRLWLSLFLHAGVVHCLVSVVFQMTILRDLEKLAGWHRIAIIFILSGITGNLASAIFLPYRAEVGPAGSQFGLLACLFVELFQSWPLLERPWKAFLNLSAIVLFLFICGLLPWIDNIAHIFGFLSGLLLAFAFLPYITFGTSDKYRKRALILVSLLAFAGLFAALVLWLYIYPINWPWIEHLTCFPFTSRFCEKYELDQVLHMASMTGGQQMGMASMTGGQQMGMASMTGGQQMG

T2: hiR2-FL-D504A-T7 (human, UniProt Q6PJF5 1-856)
T2 construct: reduced surface expression reported
T2 sequence: T1 sequence with D504A, A519T

B1: antibody 48 (antibody, V domains shown)
VH: QVQLQQSGTELVRPGTSVKVSCKASGYAFTNYLIEWVKQRPGQGLEWIGVINPGSGFTKYNEKFKGKATLTADKSSSTVYMHLSSLTSEDSAVYFCARGLYRAMDYWGQGTSVTVSS
VL: DIQMTQSPASQSASLGESVTITCLASQTIATWLAWYQQKPGKSPQLLIYGATTLADGVPSRFSGGGSGTKFSFKISSLQAEDFVSYYCQQLYSTPYTFGGGTKLEIK
notes: mouse IgG, kappa light chain; also called clone #48; purified antibody 48
B2: antibody 50 (antibody, V domains shown)
VH: B1 VH with T9A, T16A, T30S, V79A, H82Q
VL: B1 VL with A30G, G50A, T52A, T53S, S85N, L91I
notes: mouse IgG, kappa light chain; also called clone #50; purified antibody 50

How the values were obtained:
hiR2-FL-T519A-T7 = target: T1, hiR2-FL-T519A-T7; assay: FACS on MEF-DKO cells expressing the variant, 3 µg/ml antibody
In short: (§1)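 Primary stain: antibody 3 μg/ml, 1 h on ice; controls buffer alone. Secondary: PE anti-mouse IgG F(ab′)2 1:100, 1 h on ice, light-protected. Washes at 4° C; read by flow cytometry.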

hiR2-FL-D504A-T7 = target: T2, hiR2-FL-D504A-T7; assay: as above
In short: as §1

Binder | loss of binding vs wild type (hiR2-FL-T519A-T7) | loss of binding vs wild type (hiR2-FL-D504A-T7)
B1 | ≥ 60% | ≥ 60%
B2 | ≥ 60% | ≥ 60%

Source: US20240287172A1 (SCIRHOM, published 2024)
